Results reported in patent publication EP4702992A1 (CSPC Megalith Biopharmaceutical Co., Ltd., dated 2024).

T1: B7H3 antigen on the surface of A375 cells (human, UniProt Q5ZPR3 29-534)
T1 construct: whole, on cells
T1 sequence (looked up): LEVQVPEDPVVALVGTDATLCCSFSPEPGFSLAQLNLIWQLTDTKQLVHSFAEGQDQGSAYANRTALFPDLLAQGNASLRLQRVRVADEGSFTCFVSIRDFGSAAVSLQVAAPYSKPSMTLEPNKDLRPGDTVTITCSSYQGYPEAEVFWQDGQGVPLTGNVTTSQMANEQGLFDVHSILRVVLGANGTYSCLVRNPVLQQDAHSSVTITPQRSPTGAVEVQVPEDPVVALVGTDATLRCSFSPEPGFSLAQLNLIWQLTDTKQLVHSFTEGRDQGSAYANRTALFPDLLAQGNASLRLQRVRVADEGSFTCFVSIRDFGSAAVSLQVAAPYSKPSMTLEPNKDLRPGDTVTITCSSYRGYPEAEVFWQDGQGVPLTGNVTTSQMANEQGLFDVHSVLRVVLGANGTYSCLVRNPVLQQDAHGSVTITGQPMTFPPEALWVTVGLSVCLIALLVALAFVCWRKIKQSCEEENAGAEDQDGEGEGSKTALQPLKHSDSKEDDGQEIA

T2: recombinant human DLL3 protein (Kactus Biosystems, Cat. No. DLL-HM103) (human, UniProt Q9NYJ7 27-492, limits assumed)
T2 construct: Bought protein coated on the ELISA plate; also called Human DLL3 proteins
T2 sequence (looked up): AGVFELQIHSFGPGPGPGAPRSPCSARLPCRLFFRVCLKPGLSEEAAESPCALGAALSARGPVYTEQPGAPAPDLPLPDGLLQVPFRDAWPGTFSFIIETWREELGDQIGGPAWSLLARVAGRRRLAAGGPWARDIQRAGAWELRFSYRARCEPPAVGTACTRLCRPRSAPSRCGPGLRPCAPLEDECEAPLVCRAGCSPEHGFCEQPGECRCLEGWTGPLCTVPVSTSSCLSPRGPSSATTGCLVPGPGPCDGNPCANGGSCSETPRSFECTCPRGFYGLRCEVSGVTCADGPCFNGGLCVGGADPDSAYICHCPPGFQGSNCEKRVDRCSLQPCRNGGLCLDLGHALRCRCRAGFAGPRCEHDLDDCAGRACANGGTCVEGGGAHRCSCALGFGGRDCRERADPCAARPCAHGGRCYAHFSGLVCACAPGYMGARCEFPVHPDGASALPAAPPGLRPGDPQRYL

B1: Farletuzumab (antibody, human IgG1, kappa)
heavy: not shown
light: DIQLTQSPSSLSASVGDRVTITCSVSSSISSNNLHWYQQKPGKAPKPWIYGTSNLASGVPSRFSGSGSGTDYTFTISSLQPEDIATYYCQQWSSYPYMYTFGQGTKVEIKRTVAAPSVFIFPPSDEQLKSGTASVVCLLNNFYPREAKVQWKVDNALQSGNSQESVTEQDSKDSTYSLSSTLTLSKADYEKHKVYACEVTHQGLSSPVTKSFNRGEC
notes: Naked anti-FRα antibody
B2: F-ADC55-1-8 (antibody, human IgG1, kappa)
heavy: not shown
light: B1 light
modifications: linker-drug LD55-1 (exatecan payload) conjugated to sulfhydryls of reduced interchain disulfide cysteines; average DAR 7.6 per antibody
notes: Antibody-drug conjugate: farletuzumab + LD55-1, DAR 7.6
B3: Farletuzumab-FcS (antibody, human IgG1, kappa, L234A L235A)
heavy: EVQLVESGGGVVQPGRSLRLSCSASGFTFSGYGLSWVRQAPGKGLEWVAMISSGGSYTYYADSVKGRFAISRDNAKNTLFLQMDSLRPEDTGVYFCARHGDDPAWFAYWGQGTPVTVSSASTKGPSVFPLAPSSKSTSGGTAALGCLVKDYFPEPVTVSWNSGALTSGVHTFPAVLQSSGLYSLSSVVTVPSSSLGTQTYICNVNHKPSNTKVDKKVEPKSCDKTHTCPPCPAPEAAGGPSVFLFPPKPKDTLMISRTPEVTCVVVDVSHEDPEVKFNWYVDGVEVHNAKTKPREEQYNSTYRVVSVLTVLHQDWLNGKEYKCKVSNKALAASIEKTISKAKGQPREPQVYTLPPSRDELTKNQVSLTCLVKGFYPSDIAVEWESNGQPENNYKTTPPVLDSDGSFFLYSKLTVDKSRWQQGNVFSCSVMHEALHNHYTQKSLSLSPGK
light: B1 light
notes: also called Farletuzumab-FS
B4: B-ADC55-1-6 (antibody, human IgG1, kappa, L234A L235A, V domains shown)
VH: QVQLVQSGAEVKKPGASVKVSCKASGYTFTDYFMNWVRQAPGQGLEWMGDVNPKTGSPSYNQKFKGRVTMTRDTSTSTVYMELSSLRSEDTAVYYCARRYGFLYSMDYWGQGTSVTVSS
VL: DIQMTQSPSSLSASVGDRVTITCRASQDISNYLNWYQQKPGKAVKVLIYYTSRLHSGVPSRFSGSGSGTDFTFTISSLQPEDIATYYCQQGNTHPFTFGGGTKVEIKR
modifications: linker-drug LD55-1 (exatecan payload) conjugated to sulfhydryls of reduced interchain disulfide cysteines; average DAR 5.7 per antibody
notes: Antibody-drug conjugate: 43B + LD55-1, DAR 5.7
B5: B-ADC2-1-6 (antibody, human IgG1, kappa, L234A L235A, V domains shown)
VH: B4 VH
VL: B4 VL
modifications: linker-drug LD2-1 (exatecan payload) conjugated to sulfhydryls of reduced interchain disulfide cysteines; average DAR 5.6 per antibody
notes: Antibody-drug conjugate: 43B + LD2-1, DAR 5.6
B6: B-ADC12-1-6 (antibody, human IgG1, kappa, L234A L235A, V domains shown)
VH: B4 VH
VL: B4 VL
modifications: linker-drug LD12-1 (exatecan payload) conjugated to sulfhydryls of reduced interchain disulfide cysteines; average DAR 6.0 per antibody
notes: Antibody-drug conjugate: 43B + LD12-1, DAR 6.0
B7: DSADC (antibody, V domains shown)
VH: QVQLVQSGAEVKKPGSSVKVSCKASGYTFTNYVMHWVRQAPGQGLEWMGYINPYNDDVKYNEKFKGRVTITADESTSTAYMELSSLRSEDTAVYYCARWGYYGSPLYYFDYWGQGTLVTVSS
VL: EIVLTQSPATLSLSPGERATLSCRASSRLIYMHWYQQKPGQAPRPLIYATSNLASGIPARFSGSGSGTDFTLTISSLEPEDFAVYYCQQWNSNPPTFGQGTKVEIKR
modifications: control linker-drug per CN104755494A conjugated to the antibody; average DAR 3.9 per antibody
notes: Control anti-B7H3 ADC; the tie of DSADC to M30 is by position and a drawing only; also called M30 antibody conjugate
B8: 33B (antibody, human IgG1, kappa, L234A L235A, V domains shown)
VH: QVQLVQSGAEVKKPGASVKVSCKASGYTFTDYYMKWVRQAPGQRLEWMGAFNLNNGDTFYNQKFKGRVTITRDTSASTAYMELSSLRSEDTAVYYCARDVYGYGDYWGQGTSVTVSS
VL: DIVMTQSPDSLAVSLGERATINCRASKSVSTSGYSYMHWYQQKPGQPPKLLIYLASNLDSGVPDRFSGSGSGTDFTLTISSLQAEDVAVYYCQHSRELPYTFGGGTKLEIKR
notes: Naked anti-DLL3 antibody
B9: D-ADC2-1-8 (antibody, human IgG1, kappa, L234A L235A, V domains shown)
VH: B8 VH
VL: B8 VL
modifications: linker-drug LD2-1 (exatecan payload) conjugated to sulfhydryls of reduced interchain disulfide cysteines; average DAR 8.0 per antibody
notes: Antibody-drug conjugate: 33B + LD2-1, DAR 8.0
B10: D-ADC12-1-8 (antibody, human IgG1, kappa, L234A L235A, V domains shown)
VH: B8 VH
VL: B8 VL
modifications: linker-drug LD12-1 (exatecan payload) conjugated to sulfhydryls of reduced interchain disulfide cysteines; average DAR 8.0 per antibody
notes: Antibody-drug conjugate: 33B + LD12-1, DAR 8.0
B11: D-ADC55-1-8 (antibody, human IgG1, kappa, L234A L235A, V domains shown)
VH: B8 VH
VL: B8 VL
modifications: linker-drug LD55-1 (exatecan payload) conjugated to sulfhydryls of reduced interchain disulfide cysteines; average DAR 8.0 per antibody
notes: Antibody-drug conjugate: 33B + LD55-1, DAR 8.0
B12: D-BATADC (antibody, human IgG1, kappa, L234A L235A, V domains shown)
VH: B8 VH
VL: B8 VL
modifications: control linker-drug BATLD conjugated to the antibody; average DAR 7.7 per antibody

Each binder was assayed against T3, FOLR1 antigen (Sino Biological, Cat. No. 11241-H08H) (UniProt P15328 25-233) (assay: ELISA, FOLR1 coated at 0.1 µg/mL, anti-human IgG-HRP detection).
T3 construct: Bought protein coated on the ELISA plate; also called FRα
T3 sequence (P15328 25-233 limits assumed): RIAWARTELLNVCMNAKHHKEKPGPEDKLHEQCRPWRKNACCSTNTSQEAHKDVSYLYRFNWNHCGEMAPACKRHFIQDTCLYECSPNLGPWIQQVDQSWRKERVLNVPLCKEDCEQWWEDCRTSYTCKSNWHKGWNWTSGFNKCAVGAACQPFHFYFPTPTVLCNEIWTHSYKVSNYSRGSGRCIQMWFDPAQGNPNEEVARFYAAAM

Binder	EC50
B1	26.1 pM
B2	36.9 pM
B3	19.9 pM

The binders below were run against T1, B7H3 antigen on the surface of A375 … (assay: flow cytometry (MFI) on B7H3-positive A375 cells, anti-human Alexa Fluor 488).

Binder	EC50
B4	0.0378 µg/mL
B5	0.0416 µg/mL
B6	0.04 µg/mL
B7	0.0925 µg/mL

These binders were tested against T2, recombinant human DLL3 protein (Kactus …) (assay: ELISA, human DLL3 coated at 0.1 µg/mL, absorbance at 450 nm).

Binder	EC50	Emax
B8	1.87 pM	2.5
B9	4.64 pM	2.5
B10	5.84 pM	2.6
B11	6.28 pM	2.5
B12	5.27 pM	2.6
